Measured values from paper PMC6615629, “Hsp70-nucleotide exchange factor (NEF) Fes1 has non-NEF roles in degradation of gluconeogenic enzymes and cell wall integrity” (PLoS Genetics, 2019).

How the values were obtained:
Conditions in all cases: both partners purified
Ssa1 = biological target: T1, Ssa1 (yeast (S. cerevisiae), UniProt P10591 1-642); experiment: pull-down; GST-Fes1 (wild type or mutant, or GST alone) pulled down on glutathione resin; reactions with two or all three proteins; 6 μg each of His6-Fbp1 (1.6 μM), Hsp70 (0.9 μM) and GST-Fes1 (1.09 μM), with or without ATP, ADP or AMP (2.5 mM); 50 mM Tris-HCl pH 7.5, 150 mM NaCl, 2% glycerol, 5 mM MgCl2; 30 min at 4°C; stained SDS-PAGE gels
T1 construct: Ssa1, yeast cytosolic Hsp70; non-tagged; also called Hsp70; source: E. coli Rosetta 2(DE3), purified as described [51]

Ssa2 = biological target: T2, Ssa2 (yeast (S. cerevisiae), UniProt P10592 1-639); experiment: as above
T2 construct: Ssa2, yeast cytosolic Hsp70; non-tagged; also called Hsp70; source: E. coli Rosetta 2(DE3), purified as described [51]

His6-Fbp1^P2A,S12A,T13A = biological target: T3, His6-Fbp1^P2A,S12A,T13A (yeast (S. cerevisiae), UniProt P09201 1-348, P2A | S12A | T13A); experiment: pull-down; His6-Fbp1 (wild type or mutant) pulled down on Talon metal affinity resin; reactions with two or all three proteins; 6 μg each of His6-Fbp1 (1.6 μM), Hsp70 (0.9 μM) and GST-Fes1 (1.09 μM), with or without ATP, ADP or AMP (2.5 mM); 50 mM Tris-HCl pH 7.5, 150 mM NaCl, 2% glycerol, 5 mM MgCl2; 30 min at 4°C; washed with 5 mM imidazole, eluted with 250 mM imidazole; stained SDS-PAGE gels, bands quantified …
T3 construct: Fbp1, yeast gluconeogenic enzyme, P2A,S12A,T13A; the initiator methionine is counted as residue 1; source: E. coli expression, purified; not shown: His6, N-terminal, kept
T3 sequence (looked up): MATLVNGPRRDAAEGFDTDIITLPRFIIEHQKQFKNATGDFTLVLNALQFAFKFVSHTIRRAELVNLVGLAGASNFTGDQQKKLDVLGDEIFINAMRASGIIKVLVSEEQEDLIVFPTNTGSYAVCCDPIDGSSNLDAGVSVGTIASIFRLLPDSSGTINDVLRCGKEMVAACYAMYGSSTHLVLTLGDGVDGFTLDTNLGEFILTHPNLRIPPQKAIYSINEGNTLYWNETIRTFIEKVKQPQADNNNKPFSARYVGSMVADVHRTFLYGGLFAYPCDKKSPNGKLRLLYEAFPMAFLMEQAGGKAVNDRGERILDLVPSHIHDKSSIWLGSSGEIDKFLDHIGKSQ

Measured: binding result

T2 sequence (P10592 whole entry): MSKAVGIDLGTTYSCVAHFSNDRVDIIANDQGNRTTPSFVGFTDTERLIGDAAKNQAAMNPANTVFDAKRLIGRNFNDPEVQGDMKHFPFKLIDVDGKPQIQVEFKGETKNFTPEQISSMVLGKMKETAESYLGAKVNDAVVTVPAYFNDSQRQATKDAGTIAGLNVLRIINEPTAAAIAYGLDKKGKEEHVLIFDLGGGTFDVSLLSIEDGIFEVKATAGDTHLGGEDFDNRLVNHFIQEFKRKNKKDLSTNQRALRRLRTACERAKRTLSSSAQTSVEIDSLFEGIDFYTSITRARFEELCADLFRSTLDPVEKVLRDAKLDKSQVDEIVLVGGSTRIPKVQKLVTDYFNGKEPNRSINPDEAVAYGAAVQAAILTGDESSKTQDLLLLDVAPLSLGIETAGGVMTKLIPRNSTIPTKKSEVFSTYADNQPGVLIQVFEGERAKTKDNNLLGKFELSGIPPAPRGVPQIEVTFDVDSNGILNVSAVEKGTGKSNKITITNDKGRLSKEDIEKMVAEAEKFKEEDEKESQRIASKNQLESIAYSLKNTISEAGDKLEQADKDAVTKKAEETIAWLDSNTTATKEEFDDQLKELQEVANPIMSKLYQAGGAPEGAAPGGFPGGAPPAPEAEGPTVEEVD
T1 sequence (P10591 whole entry): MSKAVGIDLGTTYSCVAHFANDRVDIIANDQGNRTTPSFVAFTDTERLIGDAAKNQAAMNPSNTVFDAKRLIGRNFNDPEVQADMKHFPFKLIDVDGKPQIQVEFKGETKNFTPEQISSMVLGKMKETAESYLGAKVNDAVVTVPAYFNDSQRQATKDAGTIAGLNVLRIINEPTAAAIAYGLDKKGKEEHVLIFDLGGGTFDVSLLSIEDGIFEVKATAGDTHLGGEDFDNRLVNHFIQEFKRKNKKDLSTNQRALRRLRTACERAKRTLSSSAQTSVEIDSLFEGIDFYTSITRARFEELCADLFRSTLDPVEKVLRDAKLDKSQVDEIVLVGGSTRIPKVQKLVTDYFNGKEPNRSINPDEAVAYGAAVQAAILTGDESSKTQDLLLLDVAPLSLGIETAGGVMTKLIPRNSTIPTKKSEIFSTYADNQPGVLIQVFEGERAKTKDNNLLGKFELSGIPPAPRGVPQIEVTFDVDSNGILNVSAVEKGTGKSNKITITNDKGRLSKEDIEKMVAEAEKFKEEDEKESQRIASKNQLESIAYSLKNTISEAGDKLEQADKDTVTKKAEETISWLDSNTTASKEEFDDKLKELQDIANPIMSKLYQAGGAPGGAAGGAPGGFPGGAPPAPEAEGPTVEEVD

B1: GST-Fes1 (natural protein, yeast (S. cerevisiae), UniProt P38260 1-290, looked up)
chain: MEKLLQWSIANSQGDKEAMARAGQPDPKLLQQLFGGGGPDDPTLMKESMAVIMNPEVDLETKLVAFDNFEMLIENLDNANNIENLKLWEPLLDVLVQTKDEELRAAALSIIGTAVQNNLDSQNNFMKYDNGLRSLIEIASDKTKPLDVRTKAFYALSNLIRNHKDISEKFFKLNGLDCIAPVLSDNTAKPKLKMRAIALLTAYLSSVKIDENIISVLRKDGVIESTIECLSDESNLNIIDRVLSFLSHLISSGIKFNEQELHKLNEGYKHIEPLKDRLNEDDYLAVKYVL
notes: Fes1, yeast Hsp70 nucleotide exchange factor; also called wild type GST-Fes1; source: E. coli expression, purified as described [15]; not shown: GST, N-terminal, kept
binds: all assays above
